Assay results as given in paper PMC7095019 (Nature, 2012).

Biological target: H1 A/New Caledonia/20/1999 haemagglutinin, wild-type trimeric protein (Influenza A virus A/New …, UniProt Q6WG00, strain)
Assay: ELISA

| Binder | ELISA endpoint dilution titre | binding result |
| --- | --- | --- |
| CR6261 germline variant sCDR H2/sCDR H3, soluble IgG (antibody, V domains shown) VH: QVQLVQSGAEVKKPGSSVKVSCKASGGTFSSYAISWVRQAPGQGLEWMGGIIPIFGTTKYAPKFQGRVTITADESTSTAYMELSSLRSEDTAVYYCAKHMGYQVRETMDVWGKGTTVTVSS VL: QSVLTQPPSVSAAPGQKVTISCSGSSSNIGNNYVSWYQQLPGTAPKLLIYDNNKRPSGIPDRFSGSKSGTSATLGITGLQTGDEADYYCGTWDSSLSAYVVFGGGTKLTVL | 0.15 µg/mL | – |
| CR6261 germline variant sCDR H2, soluble IgG (antibody, V domains shown) VH: QVQLVQSGAEVKKPGSSVKVSCKASGGTFSSYAISWVRQAPGQGLEWMGGIIPIFGTTKYAPKFQGRVTITADESTSTAYMELSSLRSEDTAVYYCAKHMGYQLRETMDVWGKGTTVTVSS VL: QSVLTQPPSVSAAPGQKVTISCSGSSSNIGNNYVSWYQQLPGTAPKLLIYDNNKRPSGIPDRFSGSKSGTSATLGITGLQTGDEADYYCGTWDSSLSAYVVFGGGTKLTVL | > 100 µg/mL | no binding (tested: >100 µg ml^-1) |
| CR6261 germline variant sCDR H1, soluble IgG (antibody, V domains shown) VH: QVQLVQSGAEVKKPGSSVKVSCKASGGPFRSYAISWVRQAPGQGLEWMGGIIPIFGTANYAQKFQGRVTITADESTSTAYMELSSLRSEDTAVYYCAKHMGYQLRETMDVWGKGTTVTVSS VL: QSVLTQPPSVSAAPGQKVTISCSGSSSNIGNNYVSWYQQLPGTAPKLLIYDNNKRPSGIPDRFSGSKSGTSATLGITGLQTGDEADYYCGTWDSSLSAYVVFGGGTKLTVL | 0.15 µg/mL | – |
| CR6261 germline variant sCDR H1/sFR3, soluble IgG (antibody, V domains shown) VH: QVQLVQSGAEVKKPGSSVKVSCKASGGPFRSYAISWVRQAPGQGLEWMGGIIPIFGTANYAQKFQGRVTITADDFAGTVYMELSSLRSEDTAVYYCAKHMGYQLRETMDVWGKGTTVTVSS VL: QSVLTQPPSVSAAPGQKVTISCSGSSSNIGNNYVSWYQQLPGTAPKLLIYDNNKRPSGIPDRFSGSKSGTSATLGITGLQTGDEADYYCGTWDSSLSAYVVFGGGTKLTVL | 0.00133 µg/mL | – |
| CR6261 germline variant sCDR H1/sCDR H2, soluble IgG (antibody, V domains shown) VH: QVQLVQSGAEVKKPGSSVKVSCKASGGPFRSYAISWVRQAPGQGLEWMGGIIPIFGTTKYAPKFQGRVTITADESTSTAYMELSSLRSEDTAVYYCAKHMGYQLRETMDVWGKGTTVTVSS VL: QSVLTQPPSVSAAPGQKVTISCSGSSSNIGNNYVSWYQQLPGTAPKLLIYDNNKRPSGIPDRFSGSKSGTSATLGITGLQTGDEADYYCGTWDSSLSAYVVFGGGTKLTVL | 0.15 µg/mL | – |
| CR6261 germline variant sFR3/sCDR H3, soluble IgG (antibody, V domains shown) VH: QVQLVQSGAEVKKPGSSVKVSCKASGGTFSSYAISWVRQAPGQGLEWMGGIIPIFGTANYAQKFQGRVTITADDFAGTVYMELSSLRSEDTAVYYCAKHMGYQVRETMDVWGKGTTVTVSS VL: QSVLTQPPSVSAAPGQKVTISCSGSSSNIGNNYVSWYQQLPGTAPKLLIYDNNKRPSGIPDRFSGSKSGTSATLGITGLQTGDEADYYCGTWDSSLSAYVVFGGGTKLTVL | > 100 µg/mL | no binding (tested: >100 µg ml^-1) |
| CR6261 germline variant sCDR H1/sCDR H2/sFR3, soluble IgG (antibody, V domains shown) VH: QVQLVQSGAEVKKPGSSVKVSCKASGGPFRSYAISWVRQAPGQGLEWMGGIIPIFGTTKYAPKFQGRVTITADDFAGTVYMELSSLRSEDTAVYYCAKHMGYQLRETMDVWGKGTTVTVSS VL: QSVLTQPPSVSAAPGQKVTISCSGSSSNIGNNYVSWYQQLPGTAPKLLIYDNNKRPSGIPDRFSGSKSGTSATLGITGLQTGDEADYYCGTWDSSLSAYVVFGGGTKLTVL | 0.00133 µg/mL | – |
| CR6261 germline variant sCDR H3, soluble IgG (antibody, V domains shown) VH: QVQLVQSGAEVKKPGSSVKVSCKASGGTFSSYAISWVRQAPGQGLEWMGGIIPIFGTANYAQKFQGRVTITADESTSTAYMELSSLRSEDTAVYYCAKHMGYQVRETMDVWGKGTTVTVSS VL: QSVLTQPPSVSAAPGQKVTISCSGSSSNIGNNYVSWYQQLPGTAPKLLIYDNNKRPSGIPDRFSGSKSGTSATLGITGLQTGDEADYYCGTWDSSLSAYVVFGGGTKLTVL | > 100 µg/mL | no binding (tested: >100 µg ml^-1) |
